Laboratory results as given in the supplement of paper PMC11316812.
± gives the standard deviation of the averaged measurements.

Experiments:
MCF7 = test: percentage of EdU-negative (G0-arrested) nuclei per well, 72 h; higher = more G0 arrest; details: reference: sequence is the full UniProt precursor, the tested protein was the secreted form or ectodomain
hTERT-HMEC = test: as above; details: reference: sequence is the full UniProt precursor, the tested protein was the secreted form or ectodomain
[1] = protein concentration 0.0225 µM
[2] = protein concentration 0.0277143 µM
[3] = protein concentration 0.277143 µM
[4] = protein concentration 0.0215 µM
[5] = protein concentration 0.02225 µM
[6] = protein concentration 0.2225 µM
[7] = protein concentration 0.020585 µM
[8] = protein concentration 0.20585 µM
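Also: secreted proteins added to cultured cells, EdU pulse at the end, nuclei found by Hoechst imaging, EdU status from nuclear versus surrounding ring intensity ratio, PBS as neutral control.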

Sequence	percentage of EdU-negative (MCF7; [1])	percentage of EdU-negative (MCF7; protein concentration 0.225 µM)	percentage of EdU-negative (hTERT-HMEC; [1])	percentage of EdU-negative (hTERT-HMEC; protein concentration 0.225 µM)	other results
MWWRVLSLLAWFPLQEASLTNHTETITVEEGQTLTLKCVTSLRKNSSLQWLTPSGFTIFLNEYPALKNSKYQLLHHSANQLSITVPNVTLQDEGVYKCLHYSDSVSTKEVKVIVLATPFKPILEASVIRKQNGEEHVVLMCSTMRSKPPPQITWLLGNSMEVSGGTLHEFETDGKKCNTTSTLIIHTYGKNSTVDCIIRHRGLQGRKLVAPFRFEDLVTDEETASDALERNSLSSQDPQQPTSTVSVTEDSSTSEIDKEEKEQTTQDPDLTTEANPQYLGLARKKSGILLLTLVSFLIFILFIIVQLFIMKLRKAHVIWKKENEVSEHTLESYRSRSNNEETSSEEKNGQSSHPMRCMNYITKLYSEAKTKRKENVQHSKLEEKHIQVPESIV	25.3 ± 1.9%	25.7 ± 2.4%	4.57 ± 0.2%	4.66 ± 0.87%	–
MAPVAVWAALAVGLELWAAAHALPAQVAFTPYAPEPGSTCRLREYYDQTAQMCCSKCSPGQHAKVFCTKTSDTVCDSCEDSTYTQLWNWVPECLSCGSRCSSDQVETQACTREQNRICTCRPGWYCALSKQEGCRLCAPLRKCRPGFGVARPGTETSDVVCKPCAPGTFSNTTSSTDICRPHQICNVVAIPGNASMDAVCTSTSPTRSMAPGAVHLPQPVSTRSQHTQPTPEPSTAPSTSFLLPMGPSPPAEGSTGDFALPVGLIVGVTALGLLIIGVVNCVIMTQVKKKPLCLQREAKVPHLPADKARGTQGPEQQHLLITAPSSSSSSLESSASALDRRAPTRNQPQAPGVEASGAGEARASTGSSDSSPGGHGTQVNVTCIVNVCSSSDHSSQCSSQASSTMGDTDSSPSESPKDEQVPFSKEECAFRSQLETPETLLGSTEEKPLPLGVPDAGMKPS	–	–	–	–	percentage of EdU-negative (MCF7; [2]): 22.2 ± 1.9%; percentage of EdU-negative (MCF7; [3]): 23.6 ± 1.1%; percentage of EdU-negative (hTERT-HMEC; [2]): 5.56 ± 0.29%; percentage of EdU-negative (hTERT-HMEC; [3]): 6.09 ± 1.2%
MASTSYDYCRVPMEDGDKRCKLLLGIGILVLLIIVILGVPLIIFTIKANSEACRDGLRAVMECRNVTHLLQQELTEAQKGFQDVEAQAATCNHTVMALMASLDAEKAQGQKKVEELEGEITTLNHKLQDASAEVERLRRENQVLSVRIADKKYYPSSQDSSSAAAPQLLIVLLGLSALLQ	26.3 ± 3.5%	26.7 ± 3.2%	4.74 ± 0.69%	4.84 ± 0.58%	–
MRKMNTLLLVSLSFLYLKEVMGLKCNTCIYTEGWKCMAGRGTCIAKENELCSTTAYFRGDKHMYSTHMCKYKCREEESSKRGLLRVTLCCDRNFCNVF [P0C8F1]	24.7 ± 1.3%	27.4 ± 0.56%	4.34 ± 0.4%	7.87 ± 1.3%	–
MQCLLLLPFLLLGTVSALHLENDAPHLESLETQADLGQDLDSSKEQERDLALTEEVIQAEGEEVKASACQDNFEDEEAMESDPAALDKDFQCPREEDIVEVQGSPRCKICRYLLVRTPKTFAEAQNVCSRCYGGNLVSIHDFNFNYRIQCCTSTVNQAQVWIGGNLRGWFLWKRFCWTDGSHWNFAYWSPGQPGNGQGSCVALCTKGGYWRRAQCDKQLPFVCSF [Q9Y2Y8]	–	–	–	–	percentage of EdU-negative (MCF7; [4]): 28.7 ± 1.2%; percentage of EdU-negative (MCF7; protein concentration 0.215 µM): 32.1 ± 2.4%; percentage of EdU-negative (hTERT-HMEC; [4]): 5.28 ± 1.6%; percentage of EdU-negative (hTERT-HMEC; protein concentration 0.215 µM): 8.49 ± 1.7%
MMSFLLGAILTLLWAPTAQAEVLLQPDFNAEKFSGLWYVVSMASDCRVFLGKKDHLSMSTRAIRPTEEGGLHVHMEFPGADGCNQVDAEYLKVGSEGHFRVPALGYLDVRIVDTDYSSFAVLYIYKELEGALSTMVQLYSRTQDVSPQALKSFQDFYPTLGLPKDMMVMLPQSDACNPESKEAP [Q6UWW0]	26.2 ± 2.2%	25.9 ± 0.71%	5.79 ± 0.094%	6.89 ± 0.15%	–
MGLGPVFLLLAGIFPFAPPGAAAEPHSLRYNLTVLSWDGSVQSGFLTEVHLDGQPFLRCDRQKCRAKPQGQWAEDVLGNKTWDRETRDLTGNGKDLRMTLAHIKDQKEGLHSLQEIRVCEIHEDNSTRSSQHFYYDGELFLSQNLETKEWTMPQSSRAQTLAMNVRNFLKEDAMKTKTHYHAMHADCLQELRRYLKSGVVLRRTVPPMVNVTRSEASEGNITVTCRASGFYPWNITLSWRQDGVSLSHDTQQWGDVLPDGNGTYQTWVATRICQGEEQRFTCYMEHSGNHSTHPVPSGKVLVLQSHWQTFHVSAVAAAAIFVIIIFYVRCCKKKTSAAEGPELVSLQVLDQHPVGTSDHRDATQLGFQPLMSDLGSTGSTEGA	–	–	–	–	percentage of EdU-negative (MCF7; [5]): 24.7 ± 0.99%; percentage of EdU-negative (MCF7; [6]): 26.3 ± 1.6%; percentage of EdU-negative (hTERT-HMEC; [5]): 5.41 ± 0.075%; percentage of EdU-negative (hTERT-HMEC; [6]): 6.78 ± 1.8%
MAVRRDSVWKYCWGVLMVLCRTAISKSIVLEPIYWNSSNSKFLPGQGLVLYPQIGDKLDIICPKVDSKTVGQYEYYKVYMVDKDQADRCTIKKENTPLLNCAKPDQDIKFTIKFQEFSPNLWGLEFQKNKDYYIISTSNGSLEGLDNQEGGVCQTRAMKILMKVGQDASSAGSTRNKDPTRRPELEAGTNGRSSTTSPFVKPNPGSSTDGNSAGHSGNNILGSEVALFAGIASGCIIFIVIIITLVVLLLKYRRRHRKHSPQHTTTLSLSTLATPKRSGNNNGSEPSDIIIPLRTADSVFCPHYEKVSGDYGHPVYIVQEMPPQSPANIYYKV	–	–	–	–	percentage of EdU-negative (MCF7; [7]): 24.9 ± 1.2%; percentage of EdU-negative (MCF7; [8]): 25.5 ± 0.9%; percentage of EdU-negative (hTERT-HMEC; [7]): 4.57 ± 1%; percentage of EdU-negative (hTERT-HMEC; [8]): 6.25 ± 0.37%
